Experimental data as given in patent publication US20240025971A1 (ATRECA, published 2024).
Numbering of substitutions follows the chain as printed.

B1: AB-009271 (antibody, V domains shown)
VH: EVQLVESGGGLIQPGGSLRLSCAASGFIVSSNYMSWVRQAPGKGLEWVSVIYSGGSTYYADSVKGRFTISRDNSKNTLYLQMNSLRAEDTAVYYCARDYGDFYFDYWGQGTLVTVSS
VL: EIVMTQSPATLSVSPGERATLSCRASQSVSSNLAWYQQKPGQAPRLLIYGASTRATGIPARFSGSGSGTEFTLTISSLQSEDFAVYYCQQYYNWPRTFGQGTKVEIK
notes: human IgG1
B2: AB-009613 (antibody, V domains shown)
VH: B1 VH with I28T
VL: not shown
notes: human IgG1
B3: AB-010020 (antibody, V domains shown)
VH: QMQLVQSGPEVKKPGTSVKVSCKASGFTFTSSAVQWVRQARGQRLEWIGWIVVGSGNTNYAQKFQERVTITRDMSTSTAYMELSSLRSEDTAVYYCAAPACSSTSCYDGFDIWGQGTMVTVSS
VL: not shown
notes: human IgG1
B4: AB-010021 (antibody, V domains shown)
VH: B3 VH with P99V, A100Y, S103G, T104G, Y107L, G109A
VL: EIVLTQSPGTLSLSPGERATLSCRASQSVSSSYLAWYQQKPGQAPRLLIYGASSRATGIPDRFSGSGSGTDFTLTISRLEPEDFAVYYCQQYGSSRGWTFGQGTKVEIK
notes: human IgG1; also called AB-0010021
B5: AB-009610 (antibody, V domains shown)
VH: QVQLVQSGAEVKKPGSSVKVSCKASGGTFSNYAISWVRQAPGQGLEWMGRIIPILGIANYAQKFQGRVTITADKSTSTAYMELSSLRSEDTAVYYCATTPYYYDSSGYYLDYWGQGTLVTVSS
VL: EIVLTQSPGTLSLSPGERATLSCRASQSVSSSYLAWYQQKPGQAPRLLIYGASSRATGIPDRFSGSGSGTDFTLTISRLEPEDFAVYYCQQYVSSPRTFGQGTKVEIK
notes: human IgG1

Key:
Assay in all cases: cell-based or functional assay
[1] = biological target: SARS-CoV-2 Wuhan D614G full-length Spike protein (SARS-CoV-2, UniProt P0DTC2 14-1273)
[2] = biological target: SARS-CoV-2 Alpha (B.1.1.7) full-length Spike protein (SARS-CoV-2, UniProt P0DTC2 14-1273)
[3] = biological target: SARS-CoV-2 Beta (B.1.351) full-length Spike protein (SARS-CoV-2, UniProt P0DTC2 14-1273)
[4] = biological target: SARS-CoV-2 Gamma (P.1.B.1.1.28) full-length Spike protein (SARS-CoV-2, UniProt P0DTC2 14-1273)
[5] = biological target: SARS-CoV-2 Delta (B.1.617.2) full-length Spike protein (SARS-CoV-2, UniProt P0DTC2 14-1273)
[6] = biological target: SARS-CoV-2 Delta-plus (B.1.617.2.1) full-length Spike protein (SARS-CoV-2, UniProt P0DTC2 14-1273)
[7] = biological target: SARS-CoV-2 Epsilon (B.1.427/9) full-length Spike protein (SARS-CoV-2, UniProt P0DTC2 14-1273)

Binder	Pseudovirus Neutralization [1]	Pseudovirus Neutralization [2]	Pseudovirus Neutralization [3]	Pseudovirus Neutralization [4]	Pseudovirus Neutralization [5]	Pseudovirus Neutralization [6]	Pseudovirus Neutralization [7]
B1	0.036 µg/mL	0.275 µg/mL	> 50 µg/mL	> 50 µg/mL	0.012 µg/mL	> 50 µg/mL	0.028 µg/mL
B2	0.83 µg/mL	7.23 µg/mL	> 50 µg/mL	> 50 µg/mL	0.101 µg/mL	> 50 µg/mL	1.16 µg/mL
B3	0.003 µg/mL	0.013 µg/mL	0.018 µg/mL	0.0114 µg/mL	0.003 µg/mL	0.001 µg/mL	0.003 µg/mL
B4	0.7 µg/mL	2.69 µg/mL	8.27 µg/mL	5.39 µg/mL	0.574 µg/mL	0.078 µg/mL	0.629 µg/mL
B5	2.21 µg/mL	2.84 µg/mL	> 50 µg/mL	> 50 µg/mL	> 50 µg/mL	> 50 µg/mL	> 50 µg/mL
